The results in this text go back to article PMC12458081.

The data set has as its target T1, Fkh1-DBD (Saccharomyces cerevisiae, UniProt P40466 299-421).
T1 sequence: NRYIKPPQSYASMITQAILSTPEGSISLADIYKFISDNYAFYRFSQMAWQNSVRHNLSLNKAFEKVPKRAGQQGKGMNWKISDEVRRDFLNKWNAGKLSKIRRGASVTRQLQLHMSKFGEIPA
The experiment in a line: X-ray crystallography.

B1: 19-bp DNA binding oligo (dsDNA)
DNA 1: CGAAATGTAAACATACCGC
DNA 2: GCGGTATGTTTACATTTCG
In the case of B1, the binding result was “binds”.
